Reference: US20110263454A1, “Methods of Identifying Functional Characteristics of Promoters, Transcription Modifying Proteins and Transcription Modulating Agents” (Salk Institute for Biological Studies, priority 2008, published 2011)

Experiments:
hPPARg2 promoter = experiment: NHR-promoter luciferase screen, hPPARg2 promoter; format: cell-based, human; conditions: for Luc. act., normalized to lacZ / Normalized Luc. act., normalized to control: PPARG2 promoter, hormone receptor with or without its ligand; for Normalized Luc. act., normalized to control: relative to control; for Results of assays of transcription factor (+/- ligand) with hPPARg2: Table 6d, luciferase activity relative to control (control = 1.00)
Procedure: (§1) The use, feasibility, and reproducibility of the functional NHR-promoter screen in a 48-well format have been tested validated. Briefly, there were co-expressed 50 ng of each NHR/NHR homodimer or NHR/RXR heterodimer with 100 ng promoter/luciferase construct and 50 ng of LacZ (as a control for transfection efficiency) in CV-1 cells using Fugene HD (Roche) as a transfection reagent (alternatively or additionally, a CMV-YFP construct can be used as a transfection control). Each of the nuclear hormone receptors that were used in these experiments was cloned into a pcDNA3.1 vector and comprised a C-terminally linked V5H6 tag. Twenty-four hours after transfection, appropriate ligands were added, where applicable, (see Table 5 for various ligands and concentrations and after 48 hrs, samples were assayed for luciferase and LacZ activity. To measure for luciferase activity 15 ul of sample was added to 30 ul of luciferase buffer (20 mM tricine, 1.07 mM MgCarbonate, 2.67 mM MgSulfate, 0.1 mM Naz-EDTA, 5 mM DTT, 5 mM ATP, 0.15 mg/ml CoA, 0.5 mM Luciferin), mixed briefly, and run in a Perkin Elmer Victor 5 luminometer. Thus, the functional NHR-promoter screen was used to observe the transcriptional activity of 29 promoters from various physiological pathways including inflammation, lipid and sugar metabolism, cholesterol transport, xenobiotic metabolism, and circadian rhythm.
(§2) The promoters that facilitate transcription of the indicated gene products that were tested using the protocols described herein are listed in the first row of the table. The nuclear hormone receptors and, where applicable, ligands that were assayed for their transcriptional effects on the promoters are listed in the first column of the table. The data represent the luciferase activity of each sample normalized to both the lacZ activity of that sample and to a control, e.g., no NHR or ligand, as customary in the art. As described previously, these normalizations allow the transcriptional activity of each reporter cell to be compared to other samples.
(§3) Tables 7-40 show the transcriptional effects of the hormone receptors, and, where applicable, ligands (orphan receptors are screened without ligand), on each individual promoter. […] The control data of each table are shown in their last rows.

hTNFa promoter = experiment: NHR-promoter luciferase screen, hTNFa promoter; format: cell-based, human; conditions: for Luc. act., normalized to lacZ / Normalized Luc. act., normalized to control: TNFa promoter, HR component without or with ligand; for hTNFa promoter reporter activity: transcription factor +/- ligand, control = 1.00
Procedure: as §1, §2, §3

SREBP1c promoter = experiment: NHR-promoter luciferase screen, SREBP1c promoter; format: cell-based, mouse; conditions: for Luc. act., normalized to lacZ / Normalized Luc. act., normalized to control: SREBP1c promoter, HR component without or with ligand; for mSREBP1-c promoter reporter activity: transcription factor +/- ligand, control = 1.00; for regulation of the SREBP1c promoter: FIG. 2b, in words
Procedure: as §1, §2, §3

hPOMC promoter = experiment: NHR-promoter luciferase screen, hPOMC promoter; format: cell-based, human; conditions: for Luc. act., normalized to lacZ / Normalized Luc. act., normalized to control: hPOMC promoter, HR/ligand component; for hPOMC promoter reporter activity: transcription factor +/- ligand, control = 1.00
Procedure: as §1, §2, §3

hMDR1 promoter = experiment: NHR-promoter luciferase screen, hMDR1 promoter; format: cell-based, human; conditions: for Luc. act., normalized to lacZ / Normalized Luc. act., normalized to control: MDR1 promoter, HR/ligand component; for hMDR1 promoter reporter activity: transcription factor +/- ligand, control = 1.00
Procedure: as §1, §2, §3

mPgc1b promoter = experiment: NHR-promoter luciferase screen, mPgc1b promoter; format: cell-based, mouse; conditions: for Luc. act., normalized to lacZ / Normalized Luc. act., normalized to control: PGC1b promoter reporter, co-transfected HR, without or with its ligand; for Normalized Luc. act., normalized to control: relative to control; for luciferase activity normalized to lacZ activity and to a control, mPgc1b: mPgc1b promoter-luciferase, CV-1 cells, NHR +/- ligand, control = 1.00
Procedure: Briefly, there were co-expressed 50 ng of each NHR/NHR homodimer or NHR/RXR heterodimer with 100 ng promoter/luciferase construct and 50 ng of LacZ (as a control for transfection efficiency) in CV-1 cells using Fugene HD (Roche) as a transfection reagent (alternatively or additionally, a CMV-YFP construct can be used as a transfection control). Each of the nuclear hormone receptors that were used in these experiments was cloned into a pcDNA3.1 vector and comprised a C-terminally linked V5H6 tag.
as §2, §3

Molecule	Luc. act., normalized to lacZ (hPPARg2 promoter)	Normalized Luc. act., normalized to control (hPPARg2 promoter)	Results of assays of transcription factor (+/- ligand) with hPPARg2 (hPPARg2 promoter)	Luc. act., normalized to lacZ (hTNFa promoter)	Normalized Luc. act., normalized to control (hTNFa promoter)	hTNFa promoter reporter activity (hTNFa promoter)	Luc. act., normalized to lacZ (SREBP1c promoter)	Normalized Luc. act., normalized to control (SREBP1c promoter)	mSREBP1-c promoter reporter activity (SREBP1c promoter)	Luc. act., normalized to lacZ (hPOMC promoter)	Normalized Luc. act., normalized to control (hPOMC promoter)	hPOMC promoter reporter activity (hPOMC promoter)	Luc. act., normalized to lacZ (hMDR1 promoter)	Normalized Luc. act., normalized to control (hMDR1 promoter)	hMDR1 promoter reporter activity (hMDR1 promoter)	Luc. act., normalized to lacZ (mPgc1b promoter)	Normalized Luc. act., normalized to control (mPgc1b promoter)	luciferase activity normalized to lacZ activity and to a control, mPgc1b (mPgc1b promoter)	regulation of the SREBP1c promoter (SREBP1c promoter)
TLX: Tailless (homolog of drosophila) (NR2E1), cDNA driver	0.9	0.4	0.43	1085.1	1.1	1.10	352.4	1.1	1.09	2.6	0.6	0.60	0.2	0.7	0.70	4.5	0.4	0.38	
LXRa: Liver X Receptor α (NR1H3), cDNA driver	1.3	0.6	0.64	994.6	1.0	1.01	5951.9	18.5	18.48	6.8	1.6	1.58	0.2	0.5	0.51	8.40	0.7	0.71	specific and strong activation
HNF4a: Hepatocyte Nuclear Factor α (NR2A1), cDNA driver (protein, UniProt P41235 1-474, looked up) Hepatocyte nuclear factor …: MRLSKTLVDMDMADYSAALDPAYTTLEFENVQVLTMGNDTSPSEGTNLNAPNSLGVSALCAICGDRATGKHYGASSCDGCKGFFRRSVRKNHMYSCRFSRQCVVDKDKRNQCRYCRLKKCFRAGMKKEAVQNERDRISTRRSSYEDSSLPSINALLQAEVLSRQITSPVSGINGDIRAKKIASIADVCESMKEQLLVLVEWAKYIPAFCELPLDDQVALLRAHAGEHLLLGATKRSMVFKDVLLLGNDYIVPRHCPELAEMSRVSIRILDELVLPFQELQIDDNEYAYLKAIIFFDPDAKGLSDPGKIKRLRSQVQVSLEDYINDRQYDSRGRFGELLLLLPTLQSITWQMIEQIQFIKLFGMAKIDNLLQEMLLGGSPSDAPHAHHPLHPHLMQEHMGTNVIVANTMPTHLSNGQMCEWPRPRGQAATPETPQPSPPGGSGSEPYKLLPGAVATIVKPLSAIPQPTITKQEVI	2.0	1.0	1.02	852.9	0.9	0.87	263.6	0.8	0.82	3.5	0.8	0.81	0.2	0.8	0.77	6.4	0.5	0.54	
LXRb: Liver X Receptor β (NR1H2), cDNA driver (protein, UniProt P55055 1-460, looked up) Oxysterols receptor LXR-beta: MSSPTTSSLDTPLPGNGPPQPGAPSSSPTVKEEGPEPWPGGPDPDVPGTDEASSACSTDWVIPDPEEEPERKRKKGPAPKMLGHELCRVCGDKASGFHYNVLSCEGCKGFFRRSVVRGGARRYACRGGGTCQMDAFMRRKCQQCRLRKCKEAGMREQCVLSEEQIRKKKIRKQQQESQSQSQSPVGPQGSSSSASGPGASPGGSEAGSQGSGEGEGVQLTAAQELMIQQLVAAQLQCNKRSFSDQPKVTPWPLGADPQSRDARQQRFAHFTELAIISVQEIVDFAKQVPGFLQLGREDQIALLKASTIEIMLLETARRYNHETECITFLKDFTYSKDDFHRAGLQVEFINPIFEFSRAMRRLGLDDAEYALLIAINIFSADRPNVQEPGRVEALQQPYVEALLSYTRIKRPQDQLRFPRMLMKLVSLRTLSSVHSEQVFALRLQDKKLPPLLSEIWDVHE	2.4	1.2	1.19	866.1	0.9	0.88	4020.7	12.5	12.48	6.3	1.5	1.46	0.2	0.8	0.78	4.69	0.4	0.40	specific and strong activation
RORa: RAR-related Orphan Receptor α (NR1F1), cDNA driver (protein, UniProt P35398 1-523, looked up) Nuclear receptor ROR-alpha: MESAPAAPDPAASEPGSSGADAAAGSRETPLNQESARKSEPPAPVRRQSYSSTSRGISVTKKTHTSQIEIIPCKICGDKSSGIHYGVITCEGCKGFFRRSQQSNATYSCPRQKNCLIDRTSRNRCQHCRLQKCLAVGMSRDAVKFGRMSKKQRDSLYAEVQKHRMQQQQRDHQQQPGEAEPLTPTYNISANGLTELHDDLSNYIDGHTPEGSKADSAVSSFYLDIQPSPDQSGLDINGIKPEPICDYTPASGFFPYCSFTNGETSPTVSMAELEHLAQNISKSHLETCQYLREELQQITWQTFLQEEIENYQNKQREVMWQLCAIKITEAIQYVVEFAKRIDGFMELCQNDQIVLLKAGSLEVVFIRMCRAFDSQNNTVYFDGKYASPDVFKSLGCEDFISFVFEFGKSLCSMHLTEDEIALFSAFVLMSADRSWLQEKVKIEKLQQKIQLALQHVLQKNHREDGILTKLICKVSTLRALCGRHTEKLMAFKAIYPDIVRLHFPPLYKELFTSEFEPAMQIDG	8.4	4.2	4.19	607.5	0.6	0.62	410.8	1.3	1.28	1.6	0.4	0.38	0.1	0.3	0.32	10.8	0.9	0.91	
